Values joined by “and” are separate entries in the source; they are usually repeats but may differ in a detail not shown here. Equal entries are not always repeated.
Target: influenza A virus RNA polymerase (FluAPol) heterotrimer of human influenza A/NT/60/1968 (H3N2) (human influenza A/NT/60/1968 (H3N2) virus) (UniProt P03429)
Experiment: cryo-EM structure

“influenza A virus RNA polymerase (FluAPol) heterotrimer of human influenza A/NT/60/1968 (H3N2) (from UniProt P03429) (complex)” was tested, and the stoichiometry N was 2 and 6.

Reference: PMC11549089
